In the Human Domainome abundance scans (Beltran et al. 2025):
± gives the uncertainty stated by the source.

B1: Homeobox expressed in ES cells 1, residues 110 to 165; numbered along this chain, Q9UBX0 (parent)
chain: RPRTAFTQNQIEVLENVFRVNCYPGIDIREDLAQKLNLEEDRIQIWFQNRRAKLKR

Variants of: B1
Assay: abundance fitness (aPCA) (normalised: wild type 0, dead -1); higher = more abundant; growth selection in yeast, the domain comes from the species named
Conditions: Homo sapiens
With I45Y the abundance fitness was 0.019 ± 0.26. In the case of W46A, the abundance fitness is reported as -0.693 ± 0.1. In the case of W46C, the abundance fitness is reported as -1.15 ± 0.25. For W46D, the abundance fitness was -0.428 ± 0.4. W46E showed an abundance fitness of -0.751 ± 0.31. Variant W46F has an abundance fitness of -0.547 ± 0.33. With W46G the abundance fitness was -1.07 ± 0.18. In the case of W46H, the abundance fitness is reported as -0.58 ± 0.36. For W46K, the abundance fitness was -0.925 ± 0.44. Work on W46L yielded an abundance fitness of -0.895 ± 0.29. W46P showed an abundance fitness of -0.361 ± 0.26. For W46S, the abundance fitness was -0.595 ± 0.26. For W46T, the abundance fitness was -0.721 ± 0.36. Work on W46V yielded an abundance fitness of -0.928 ± 0.29. With W46Y the abundance fitness was 0.48 ± 0.26. Work on F47A yielded an abundance fitness of -0.698 ± 0.17. For F47C, the abundance fitness was -0.851 ± 0.28. Work on F47D yielded an abundance fitness of -0.576 ± 0.46. Variant F47E has an abundance fitness of -0.942 ± 0.32. Variant F47G has an abundance fitness of -0.855 ± 0.09. Work on F47I yielded an abundance fitness of -0.449 ± 0.18. Work on F47L yielded an abundance fitness of -0.842 ± 0.19. Work on F47R yielded an abundance fitness of -0.952 ± 0.2. Variant F47S has an abundance fitness of -0.724 ± 0.37. Work on F47V yielded an abundance fitness of -0.841 ± 0.25. In the case of F47W, the abundance fitness is reported as -0.908 ± 0.44. In the case of F47Y, the abundance fitness is reported as -0.455 ± 0.49. For Q48A, the abundance fitness was 0.233 ± 0.13. In the case of Q48C, the abundance fitness is reported as -0.466 ± 0.17. In the case of Q48E, the abundance fitness is reported as -0.098 ± 0.12. With Q48G the abundance fitness was -0.461 ± 0.092. Variant Q48H has an abundance fitness of -0.287 ± 0.33. Q48I showed an abundance fitness of -0.23 ± 0.22. With Q48K the abundance fitness was 0.114 ± 0.17. Variant Q48M has an abundance fitness of -0.073 ± 0.097. Q48N gave an abundance fitness of -0.307 ± 0.34. Variant Q48P has an abundance fitness of -0.658 ± 0.5. Variant Q48R has an abundance fitness of 0.142 ± 0.12. Q48S gave an abundance fitness of -0.001 ± 0.14. Q48T showed an abundance fitness of 0.299 ± 0.14. Q48V gave an abundance fitness of -0.026 ± 0.12. For N49A, the abundance fitness was 0.217 ± 0.13. N49C showed an abundance fitness of -0.425 ± 0.088. In the case of N49D, the abundance fitness is reported as 0.044 ± 0.11. Work on N49E yielded an abundance fitness of 0.43 ± 0.12. N49F showed an abundance fitness of -0.604 ± 0.41. N49G showed an abundance fitness of -0.527 ± 0.093. With N49H the abundance fitness was -0.232 ± 0.31. Work on N49I yielded an abundance fitness of -0.46 ± 0.23. Variant N49K has an abundance fitness of -0.102 ± 0.23. Variant N49L has an abundance fitness of -0.19 ± 0.1. N49M gave an abundance fitness of 0.052 ± 0.2. For N49P, the abundance fitness was -0.648 ± 0.34. N49Q gave an abundance fitness of -0.124 ± 0.37. N49R gave an abundance fitness of -0.291 ± 0.14. N49S gave an abundance fitness of -0.198 ± 0.16. For N49T, the abundance fitness was -0.019 ± 0.11. Variant N49W has an abundance fitness of -0.471 ± 0.11. Work on R50A yielded an abundance fitness of -0.206 ± 0.083. Work on R50C yielded an abundance fitness of -0.614 ± 0.3. Variant R50D has an abundance fitness of -0.443 ± 0.22. R50E showed an abundance fitness of 0.178 ± 0.071. In the case of R50G, the abundance fitness is reported as -0.782 ± 0.13. With R50H the abundance fitness was -0.242 ± 0.34. Work on R50K yielded an abundance fitness of -0.39 ± 0.34. Variant R50L has an abundance fitness of -0.818 ± 0.38. R50M showed an abundance fitness of -0.38 ± 0.26. For R50N, the abundance fitness was -0.378 ± 0.3. Work on R50P yielded an abundance fitness of -0.954 ± 0.41. With R50Q the abundance fitness was 0.153 ± 0.2. Variant R50S has an abundance fitness of -0.666 ± 0.22. Work on R50T yielded an abundance fitness of -0.236 ± 0.24. R50V gave an abundance fitness of -0.727 ± 0.21. R51A gave an abundance fitness of -0.424 ± 0.17. With R51C the abundance fitness was -0.368 ± 0.12. For R51D, the abundance fitness was 0.168 ± 0.45. Variant R51E has an abundance fitness of -0.632 ± 0.12. With R51G the abundance fitness was -0.671 ± 0.18. In the case of R51I, the abundance fitness is reported as -0.336 ± 0.31. Variant R51K has an abundance fitness of -0.577 ± 0.27. For R51L, the abundance fitness was -0.752 ± 0.24. Work on R51M yielded an abundance fitness of -0.109 ± 0.12. In the case of R51N, the abundance fitness is reported as -0.131 ± 0.19. For R51Q, the abundance fitness was -0.43 ± 0.3. R51S showed an abundance fitness of -0.491 ± 0.27. For R51T, the abundance fitness was -0.301 ± 0.23. Work on R51V yielded an abundance fitness of -0.243 ± 0.079. For R51Y, the abundance fitness was -0.782 ± 0.16. A52C gave an abundance fitness of -0.143 ± 0.17. A52D gave an abundance fitness of -0.044 ± 0.22. A52E gave an abundance fitness of 0.059 ± 0.19. Variant A52F has an abundance fitness of -0.361 ± 0.15. For A52G, the abundance fitness was -0.205 ± 0.12. For A52H, the abundance fitness was -0.05 ± 0.21. In the case of A52K, the abundance fitness is reported as -0.064 ± 0.086. In the case of A52L, the abundance fitness is reported as -0.499 ± 0.25. A52M showed an abundance fitness of -0.269 ± 0.26. Variant A52N has an abundance fitness of -0.03 ± 0.17. For A52R, the abundance fitness was -0.194 ± 0.14. Work on A52S yielded an abundance fitness of -0.104 ± 0.19. Variant A52T has an abundance fitness of 0.172 ± 0.13. A52V showed an abundance fitness of -0.348 ± 0.076. A52W gave an abundance fitness of -0.505 ± 0.15. K53C gave an abundance fitness of -0.459 ± 0.18. In the case of K53D, the abundance fitness is reported as -0.067 ± 0.26. Work on K53E yielded an abundance fitness of 0.176 ± 0.15. Variant K53F has an abundance fitness of -0.326 ± 0.37. For K53G, the abundance fitness was -0.141 ± 0.079. Work on K53I yielded an abundance fitness of -0.156 ± 0.24.
